# Source: patent publication US20190352375A1
# Target: Hemagglutinin of AIV A/duck/It/775/04(H5N3) (Influenza A virus A/duck/Italy/775/2004(H5N3))
# Experiment: cell-based or functional assay
row,Substance,HI titer
1,"mAb 7: Monoclonal Antibody to Influenza A (Hemagglutinin H5) H5N1 - Purified, Acris Antibodies AM00945PU-N",2 µg/mL
2,"mAb 8: Monoclonal Antibody to Influenza A (Hemagglutinin H5) H5N1 - Purified, Acris Antibodies AM00941PU-N",1 µg/mL
3,"mAb 9 (Pierce/Thermo Sci., Cat. No. MA1-81928) (antibody)",7.8 µg/mL
